The subject of this series is T1, QseB (rQseB) (Glaesserella parasuis serovar 5 strain CF7066), ORF:6fe33d28.
T1 sequence: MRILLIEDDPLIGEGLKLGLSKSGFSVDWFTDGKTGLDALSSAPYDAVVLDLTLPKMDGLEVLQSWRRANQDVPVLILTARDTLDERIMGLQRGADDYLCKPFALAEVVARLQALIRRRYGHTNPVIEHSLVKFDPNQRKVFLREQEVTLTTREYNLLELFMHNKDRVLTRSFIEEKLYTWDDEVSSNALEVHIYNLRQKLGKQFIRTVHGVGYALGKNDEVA
Put plainly: EMSA. The note with it: 50 mM Tris, 10 mM MgCl2, 0.1 mM DTT. On the technique in general: In EMSA bound probe runs differently from free probe, usually more slowly.

This note sets out measurements from PMC10714720.

As to “AAATTGCTCCTAGTGTTTATTAGTAAAAGCATTATTGCTTTGTTGAGTGTATTAAAACAGAGAAATCTTAAGAAAGTCTTAAGATAAAAAAATTTATTTTTAGACAAAATCTAATAAAAAAGCGGCAAGATTCGTAAATCCTACCGCTTAGATCACATTATGAAAAAATTAGAATCTATAGTTTGCCCCAATAA (double strand) [qseB promoter (Cy5.5-qseB)]”, the binding result is given as “binds”.
Consider “GAAGAACTTACGCTGAGTTGTTTAAATAGCTCGTTGAGCAAGGTGAATCCTCAGAAGAGTATGTCGAAGTAATGGGGCATATGCAAGTAGAAATAGATTTAGAAATGATCAAAACCTGAATCTGAAATATTATTTTAAATATATAGTCTTAACTGTCTTAGGAAAAGGCAGTAGAGATAGGATGAGATAACAGT (double strand) [capD promoter (Cy5.5-capD)]”, for which the binding result is listed as “binds”.
